Key:
Assay in all cases: cell-based or functional assay
[1] = biological target: HIV-1 Env of isolate MGRM-F1-015 (subtype F), on pseudovirus (HIV-1)
[2] = biological target: HIV-1 Env of isolate APV-17 (pseudovirus) (HIV-1 isolate APV-17, subtype B)
[3] = biological target: HIV-1 Env of isolate MGRM-D-005 (HIV-1)
[4] = biological target: HIV-1 Env of isolate MGRM-A-010 (clade A), on pseudovirus (HIV-1)
[5] = biological target: HIV-1 Env of isolate 92WR024 (HIV-1)
[6] = biological target: HIV-1 Env of isolate 93WR029 (HIV-1)
[7] = biological target: HIV-1 Env of isolate MGRM-D-020 (HIV-1)
[8] = biological target: HIV-1 JR-CSF Env D474A (HIV-1 (isolate JR-CSF)) (UniProt P20871)
[9] = biological target: HIV-1 Env of isolate 93UG077 (HIV-1)
[10] = biological target: HIV-1 Env of isolate MGRM-A-014 (clade A), on pseudovirus (HIV-1)
[11] = biological target: HIV-1 Env of isolate 6535.3 (pseudovirus) (HIV-1 isolate 6535.3, subtype B)
[12] = biological target: HIV-1 Env of isolate 92UG114 (HIV-1)
[13] = biological target: HIV-1 Env of isolate MGRM-D-028 (subtype D), on pseudovirus (HIV-1)
[14] = biological target: HIV-1 Env of isolate 92RW008 (HIV-1)
[15] = biological target: HIV-1 JR-CSF Env N134A (HIV-1 (isolate JR-CSF)) (UniProt P20871)
[16] = biological target: HIV-1 Env of isolate MGRM-C-024 (pseudovirus) (HIV-1 isolate MGRM-C-024, subtype C)
[17] = biological target: HIV-1 Env of isolate MG RM-D-028 (subtype D) (HIV-1)
[18] = biological target: HIV-1 MGRM-C-026 envelope glycoprotein (Env) on pseudovirus (HIV-1)
[19] = biological target: HIV-1 Env of isolate MG RM-D-029 (subtype D) (HIV-1)
[20] = biological target: HIV-1 Env of isolate MGRM-C-005 (pseudovirus) (HIV-1 isolate MGRM-C-005, subtype C)
[21] = biological target: HIV-1 Env of isolate MGRM-F1-022 (HIV-1)
[22] = biological target: HIV-1 Env of isolate MG RM-D-022 (subtype D) (HIV-1)
[23] = biological target: HIV-1 SC422661.8 Env (pseudovirus) (HIV-1)
[24] = biological target: HIV-1 Env of isolate MG RM-D-026 (subtype D) (HIV-1)
[25] = biological target: HIV-1 MGRM-Chronic-B-020 Env (pseudovirus) (HIV-1)
[26] = biological target: HIV-1 Env of isolate MGRM-F1-006 (subtype F) (HIV-1)
[27] = biological target: HIV-1 Env of isolate MGRM-F1-018 (HIV-1)
[28] = biological target: HIV-1 APV6 envelope glycoprotein (Env) on pseudovirus (HIV-1)
[29] = biological target: HIV-1 CMU02 envelope glycoprotein (Env) on pseudovirus (HIV-1)

5343_B08 (PGT-135) (antibody)
IC50, pseudovirus neutralization [1]: 1.11 µg/mL | IC50 (µg/mL) neutralization [2]: > 50 µg/mL | IC50 [3]: > 50 µg/mL | IC50, single-round pseudovirus neutralization [4]: > 50 µg/mL | neutralization IC50 [5]: > 50 µg/mL | neutralization IC50 [6]: > 50 µg/mL | IC50 [7]: > 50 µg/mL | Fold IC50 increase relative to wild-type [8]: 1.2 fold | neutralization IC50 [9]: > 50 µg/mL | IC50, single-round pseudovirus neutralization [10]: 0.636 µg/mL | IC50 (µg/mL) neutralization [11]: > 50 µg/mL | IC50 [12]: 1.29 µg/mL | IC50, pseudovirus neutralization [13]: > 50 µg/mL | neutralization IC50 [14]: 1.42 µg/mL | Fold IC50 increase relative to wild-type [15]: 0.2 fold

5123_A06 (PGT-125) (antibody)
IC50 (µg/mL) neutralization [16]: > 50 µg/mL | IC50 (µg/mL), pseudovirus neutralization [17]: > 50 µg/mL | IC50 (ug/ml), neutralizing activity [18]: 0.0106 µg/mL | neutralization IC50 [18]: 0.0106 µg/mL | neutralization IC80 [18]: 0.035 µg/mL | neutralization IC90 [18]: 0.0705 µg/mL | neutralization IC95 [18]: 0.134 µg/mL | IC50 (µg/mL), pseudovirus neutralization [19]: > 50 µg/mL | IC50 (µg/mL) neutralization [20]: 2.09 µg/mL | IC50 [21]: > 50 µg/mL | Fold IC50 increase relative to wild-type [8]: 1.4 fold | IC50 (µg/mL), pseudovirus neutralization [22]: 0.04 µg/mL | IC50, pseudovirus neutralization [23]: 30.1 µg/mL | IC50 (µg/mL), pseudovirus neutralization [24]: > 50 µg/mL | IC50, pseudovirus neutralization [25]: 0.087 µg/mL | IC50 (µg/mL), pseudovirus neutralization [26]: 0.035 µg/mL | IC50 [27]: > 50 µg/mL | IC50 (ug/ml), neutralizing activity [28]: 0.0359 µg/mL | neutralization IC50 [28]: 0.0359 µg/mL | neutralization IC80 [28]: 0.133 µg/mL | neutralization IC90 [28]: 0.288 µg/mL | neutralization IC95 [28]: 0.597 µg/mL | IC50 (ug/ml), neutralizing activity [29]: > 10 µg/mL | neutralization IC50 [29]: > 10 µg/mL | neutralization IC80 [29]: > 10 µg/mL | neutralization IC90 [29]: > 10 µg/mL | neutralization IC95 [29]: > 10 µg/mL | Fold IC50 increase relative to wild-type [15]: 0.5 fold

5345_I01 (PGT-137) (antibody)
IC50, pseudovirus neutralization [1]: > 50 µg/mL | IC50 (µg/mL) neutralization [2]: > 50 µg/mL | IC50 [3]: > 50 µg/mL | IC50, single-round pseudovirus neutralization [4]: > 50 µg/mL | neutralization IC50 [5]: > 50 µg/mL | neutralization IC50 [6]: > 50 µg/mL | IC50 [7]: > 50 µg/mL | neutralization IC50 [9]: > 50 µg/mL | IC50, single-round pseudovirus neutralization [10]: 18.6 µg/mL | IC50 (µg/mL) neutralization [11]: > 50 µg/mL | IC50 [12]: > 50 µg/mL | IC50, pseudovirus neutralization [13]: > 50 µg/mL | neutralization IC50 [14]: 0.148 µg/mL

5114_A19 (PGT-128) (antibody)
IC50, pseudovirus neutralization [1]: > 50 µg/mL | IC50 (µg/mL) neutralization [2]: 0.016 µg/mL | IC50 [3]: 0.051 µg/mL | IC50, single-round pseudovirus neutralization [4]: 0.005 µg/mL | neutralization IC50 [5]: > 50 µg/mL | neutralization IC50 [6]: > 50 µg/mL | IC50 [7]: 0.011 µg/mL | Fold IC50 increase relative to wild-type [8]: 0.8 fold | neutralization IC50 [9]: 0.014 µg/mL | IC50, single-round pseudovirus neutralization [10]: 0.007 µg/mL | IC50 (µg/mL) neutralization [11]: 0.011 µg/mL | IC50 [12]: 0.083 µg/mL | IC50, pseudovirus neutralization [13]: > 50 µg/mL | neutralization IC50 [14]: 0.003 µg/mL | Fold IC50 increase relative to wild-type [15]: 1.2 fold

4858_P08 (PGT-123) (antibody)
IC50 (µg/mL) neutralization [16]: 0.195 µg/mL | IC50 (µg/mL), pseudovirus neutralization [17]: 0.132 µg/mL | IC50 (ug/ml), neutralizing activity [18]: 0.0031 µg/mL | IC50, pseudovirus neutralization [18]: 0.0031 µg/mL | IC80, pseudovirus neutralization [18]: 0.0094 µg/mL | IC90 (pseudovirus neutralization) [18]: 0.0183 µg/mL | IC95, pseudovirus neutralization [18]: 0.0338 µg/mL | IC50 (µg/mL), pseudovirus neutralization [19]: > 50 µg/mL | IC50 (µg/mL) neutralization [20]: 0.012 µg/mL | IC50 [21]: 0.075 µg/mL | Fold IC50 increase relative to wild-type [8]: 1.1 fold | IC50 (µg/mL), pseudovirus neutralization [22]: > 50 µg/mL | IC50, pseudovirus neutralization [23]: 0.039 µg/mL | IC50 (µg/mL), pseudovirus neutralization [24]: > 50 µg/mL | IC50, pseudovirus neutralization [25]: 0.005 µg/mL | IC50 (µg/mL), pseudovirus neutralization [26]: 6.89 µg/mL | IC50 [27]: 0.054 µg/mL | IC50 (ug/ml), neutralizing activity [28]: 0.0327 µg/mL | IC50, pseudovirus neutralization [28]: 0.0328 µg/mL | IC80, pseudovirus neutralization [28]: 0.145 µg/mL | IC90 (pseudovirus neutralization) [28]: 0.339 µg/mL | IC95, pseudovirus neutralization [28]: 0.726 µg/mL | IC50 (ug/ml), neutralizing activity [29]: > 10 µg/mL | IC50, pseudovirus neutralization [29]: > 10 µg/mL | IC80, pseudovirus neutralization [29]: > 10 µg/mL | IC90 (pseudovirus neutralization) [29]: > 10 µg/mL | IC95, pseudovirus neutralization [29]: > 10 µg/mL | Fold IC50 increase relative to wild-type [15]: 0.4 fold

Source: patent US20200024330A1
